Assay results from a protein production outcome set (Wang et al. 2014).

Assay: label from the status in PepcDB records

| Sequence | protein production |
| --- | --- |
| FANTATVAVSQIVEHPALDATRQGLLDGLKAKGYEEGKNLEFDYKTAQGNPAIAVQIARQYVGESPDVLVGIATPSAQALVSATRTIPVVFTAVTDPVGAKLVKSMKQPGKNVTGLSDLSPVAQHVELIQEILPQVKSIGVVFNPGEANAVTLVNLLKESAEAKGIKVVEATALKSADVQSATQAIAAKSDILYAPTDNTVASAIEGMIVAANQAKKPVFGGATSYVEKGAIAGLGFDYYQVGVQTADYVAAILDGQEPGKLDVKVATGSDLVINESAASKLGIQLPSSVVQRATSMQ | failed |
| FDENWGADEELLLIDACETLGLGNWADIADYVGNARTKEECRDHYLKTYIE | not failed |
| FEKVYHLKLSIKGITPQIWRRIQVPENYTFLDLHKAIQAVMDWEDYHLHEFEMVNPKTGMLDKIGAEGDDFDAFGGPLVSEKKAKLSDYFTLENKEALYTYDFGDNWQVKVRLEKILPRKEGVEYPICTAGKRAAVPEDSGGVWGYEEMLEVLKDSEHEEYEDTVLWLGDDFDPEYFDPKDVS | failed |
| FGKVTSSQQVAQRLLQEMKGLQQEHLICIYLNTKNDIIQQKTIFKGSLNQSIAHPREIFREAVKYSSARILLAHNHPSGNPTPSPQDIQFTKRMEECGEMMGIQLLDHIILGDSGYISLREENFFASE | failed |
| FIFFNQPKTPEESIQLLGAQAGDTESFRVTLDRIPPQIQKLSFTATLDGAGQMSQVAPGYLRIVAGGEEVARYSFTGSEFSTERAVMLGDFYLKDVWRFAAVGQGFDGGLDALL | failed |
| FNGWSWSLGGNIGFNKSKIGDLGFAPTDFGTLKNVRGYQGTSIGDHFGIANLFIAGEAPGLFFGYKTQGIIQPEDIVDGKVAYTAADGSTKYYSSSVANDLGAGNIKAVDMNEDGVVDEKDKTILGNPNPDFTYGFQTRIAWKDLSVSASFNGVHGNQILNTNIRYYTPSRQAGNLTQEAFRNIWTEENHSNLYPSATANVKNVVYDRYIEDGSYLRCSDITLNYTLPKSWMKKIGFQNIGVFASVKNAFVITNYSGYDPEINSFAFDGLRPGIDMNAFPSQRSYVFGLNVAF | failed |
| FQDFEYPDYDDYRAEAFLHQQKRMECYSKAKEAYRIGKKNVATFYAQQGTLHEQKMKEANHLAAIEIFEKVNASLLPQNVLDLHGLHVDEALEHLMRVLEKKTEEFKQNGGKPYLSVITGRGNHSQGGVARIKPAVIKYLISHSFRFSEIKPGCLKVMLK | failed |
| FVWHEYENAAEAAQSLADAVADALQGALDEKGGAVLAVSGGRSPIAFFNALSQKDLDWKNVGITLADERIVPTVHADSNTGLVREYLLKNKAEAAMWIPMVEDGKTETELHPDAVVDYALKHYKQPDVLVLGMGNDGHTASIFPKAPQFQTAIDGSAGVALVHTTPVTAPHERVSMTLDAIAHTGHVFLAIRGEEKKAVFDQAAQGENREYPINLVLNHQGVNCHV | failed |
| FYTNRTVVKLMTMIMAPQPGESVYDPTCGSGGLLLNCALHLKDEGKEYRTLKLYGQEINLLTSAIARMNMFMHGIEEFDIVRGNTLSNPGLLENDELKKFNVILANPPYSIKSWDRKAFESDPYGRNVWGTPPQGCADYAFQQHIQKSLDLGNGRSISLWPHGILFRDAETAMRRKMIEQDQVECVIGLGPNLFYNSPMEACLLITKTNKIESKKDKILFINAVKEVRQDKNIGYLDQVHIDKIFNAYNKFENED | failed |
| GAPLKAVSAFAPPMKTQDFNLYTNEVHAKFDDYDLGMEYARQHNKPVMLDFTGYGCVNCRKMELAVWTDPKVSSIINNDYVLITLYVDNKTPLTEPVKIMENGTERTLRTVGDKWSYLQRVKFGANAQPFYVLIDNEGNPLNKSYAYDEDISKYINFLQTGLENYRKEK | not failed |
| GDDEIAMLGRYFNQMTRQLKGQRDTLLENTHQIERRRRLFDSVLSSVTSGVVGLDSQGKVTFVNRSAERLLDWSGDEQSLDLAVAVPEFVSLFESLVAAGQETVQAEIKVTRKGQLENLLVRMSTRRGEDDTLEGYVIAFDD | failed |
| GDGVWDWDISNGSIFFSSRCRQLLGLTAPEAIAGFQLWQTGIHPDERPTVQAELAGYLRQPEGSFVTEHRFRKGEEWIWLLGRGMVVSLDIQGRPLRMIGTYSDITERKEAEAELQLLNSHLEERVAARTAELKKAMQQISIAEKQAALARMVAGMAHELNTPIGNILLCSSQIQADVAAIAKADTDRLLSRKGLQSFLQKAAESCELLQRNSELAGDLIGRFKQIAVDQLDQP | failed |
| GDLAGSLDLGTGRIALYSIDVSGHGVASALMTARLAGLLSGLSTDGGVARSDGACRQCAGHDSWPPEILAARLNRMMIADLGVEQYFTMAYAEIDLRSGALALVQAGHPHPVVLRAGGRVELLGQGGLPVGLLPDATFERSETRLLPGDRLFLLSDGVTECPDLSGHELGEAGLVRLLAEHAGLGSEELMEALVWALHERMGGGDFRDDVSGVLFDY | failed |
| GEELLPDGVPEEVMESAQPVANEEIVAQLVSMGFSQLHCQKAAINTSNAGVEEAMNWLLSHMDDPDIDAPI | not failed |
| GEGTDAIQALIQAYFTAWNTNAPERFAEIFWPDGSWVNVVGMHWRGRDQIVFAHTAFLKTIFKDCKQELVTIEARTIAPGSALAVVTLIQDAYVTPDGRQMPRAHDRLTLLAVEREGVWRFIHGHNTIVNPDAANNDPVLRMKPA | not failed |
| GFAATALPVLQRVTDRTHEATILSVRDGNHHLTVNKVDGPKTFRVTSDPGHLGALHTTSVGKALVAFEEEVERKRLLEELPLDPLTEHSITDRDKFRAEIDQVRRQGYAVMDEENEIGMRAVAVPVLNSQGHAFASLAVAVPVFRLTMEELIAHVPTLQEAAAELAARLPQ | failed |
| GGLRLIPLDQVRYLQADEKYVVICHEQGEDLIEESLKSLEKEFSDRFVRIHRNCLIARAELTELRRCSDGQVQAVLRNVVTPLAVSRRCVPLLCDQLR | not failed |
| GGTPSPQLTSRQEIAVVPKVFDASTMFLEAQMASIQILEQENKKIGYVHIWSNAADPYQQELQNELIYGRLRNADGLILDLRDGWGGGDISYLNIFTAKQSPSVTHVQRNGRRYTYNYQWKKPVVMLVNEGSRSSKEILAFNFQQNQIGPVLGTKTTGAVVAGRPYIMQDGSLLYVAVADVFLNGNQRLEGKGVTPDINVPFSLEYAQGVDPQKQTAIETLLKAL | failed |
| GHMARTVNLKGNPVTLVGPELKVGDRAPEAVVVTKDLQEKIVGGAKDVVQVIITVPSLDTPVCETETKKFNEIMAGMEGVDVTVVSMDLPFAQKRFCESFNIQNVTVASDFRYRDMEKYGVLIGEGALKGILARAVFIIDKEGKVAYVQLVPEITEEPNYDEVVNKVKELI | not failed |
| GHMSEFVSIAARQEGAVGIIELARPDVLNALSRQMVAEIVAAVEAFDRNEKVRVIVLTGRGRAFAAGADIQEMAKDDPIRLEWLNQFADWDRLSIVKTPMIAAVNGLALGGGFELALSCDLIVASSAAEFGFPEVNLGVMPGAGGTQRLTKLIGPKRALEWLWTGARMSAKEAEQLGIVNRVVSPELLMEETMRLAGRLAEQPPLALRLIKEAVQKAVDYPLYEGMQFERKNFYLLFASEDQKEGMAAFLEKRKPRFQGK | not failed |
| GHMSPGERFLDWLKRLQGQKAWTAARAAFRRSLAFPPGAYPRAMPYVEPFLAKGDWRQEEREAHYLVAALYALKDGDHQVGRTLARALWEKAQGSASVEKRFLALLEADRDQIAFRLRQAVALVEGGIDFARLLDDLLRWFSPERHVQARWAREYYGAGASEEEKKKEVEA | not failed |
| GIKDSPVNKVEPNDTLEKVFVSVTKYPDEKRLKGLSKQLDWSVRKIQCWFRHRRNQDKP | not failed |
| GKKIKYDTPLSTLVIAPPGTGKTSAIIIPNLLSIPNSQVVIDVKGEICSLTAGYRQKKLLNQVFIFNPFGEDSNFHFNPFNLERMSKLGFAEKTAIVRQVGSTIFPKPKDEKDSHWRETAKTFFEFAAMHNIEKYGYTTLYEIYRFPKKDWTDELEDKYFDEKEKREELGEEVNTFRLLLRQIAENETLHDNIRDDARRFLGTPANEFGSVLSTFSTKMSIFGDLRVKELTDQNSFMPERLREDNITLYIKCLEKDIPSLSPIIRILLETIVKELMSRESTDPKERIYLELDEVMRFGELDFMIELPSISRSYNLPNIFAAQSYAQIRKHYSQEDLEIMLDTVAYQVVFRANRQQAAEDISKEVGDFTAHKKTTSSQDIKILQSYSTSEEAKRLVTAQDILNIPKDKVLILATGHKATPILAQANFYFKDRTERQKTKIKKE | failed |
| GKRSTMLLRAITPQDWDAILQIQEECYSQLDPEPLHVLQSKWHVSPQSCFVFEVNESVVGYCLAHPWTTNMPPALYEPITHLPKADTLYLHDIAISAKAQGLGAGSKALMRLKQLADRFNLGSLSLVAVQGADSYWRKMGFTPKAIDKCLGSYTDDAMYMIYKL | failed |
| GKTFPDVPADHWGIDSINYLVEKGAVKGNDKGMFEPGKELTRAEAATMMAQILNLPIDKDAKPSFADSQGQWYTPFIAAVEKAGVIKGTGNGFEPNGKIDRVSMASLLVEAYKLDTKVNGTPATKFKDLETLNWGKEKANILVELGISVGTGDQWEPKKTVTKAEAAQFIAKTDKQFGTE | not failed |
| GMINAHNHLPMIAFRGLGEEGISNRLFAYFFPLEAQKLSRELIYNATKLGAIDLAQSGVTTYADMYYHMDEMAKATKEVGLRAVLGETVIKFPVVDAKQPYGGIQYAKPFIEEYQNDPLITPAYAPHAVYTVSKEKLQEINQLSEDYDVPVLIHVAEFPNEEARIKDPTKATSPVEYLEEIGVLDERMVIAHGIHLSQHDQALLKQADAGVVYNPMANVKGATGIAPAWDMFRADMRVGLGTDGPMSSNQVDLWRTLSYAANMQRLKHSDRTIMIPEQVIEMATIGGAKALHMEDE | failed |
| GNLEEMNIDPDNATQTHPKLLLTQICMNAFKRGTDGMYATKKVIQADGESADQYYKWTRGSFGYYDNLRNVQKMGEEAERVNAPVYTALTKFFRAYYFYELTLRFGDIPYSQALKGEKEEIYTPEYDAQEDVFAGILQELREADEILANDASVIDGDIIYNGNSTQWRKLINSFRLKVLMTLSNHTTVGNINIASEFKNIATNSPLMNSLADNGQLVYLDQQGNRYPQFNAQWSGYYMDDTFIQRMRERRDPRLFIFSAQTNKGKTEGKPIDDFSSYEGGDPAAPYSDAIIKVSEGTISPINDRFRTDPIVEPTMLMGYAELQQILAEAVVRGWISGNAQTYYEKGIRASFSFYETHAKDYAGYLNENAVAQYLKEPLVDFTQASGTEEQIERIIMQKYLVTFYQGNWDSFYEQLRTGYPDFRRPAGTEIPKRWMYPQGEYDNNGTNVETAITRQFGAGNDKINQATWWQKKS | not failed |
| GPGSMSLKVNILGHEFSNPFMNAAGVLCTTEEDLRRMTESESGSLIGKSCTLAPRTGNPEPRYFGLPLGSINSMGLPNLGVDFYLSYAAQTHDYSRKPLFLSMSGLSVEESVEMVKKLAPITKEKGTILELNLSCPNVPGKPQVGYDFDTTRTYLQKVSEAYGLPFGVKMPPYFDIAHFDMAAAVLNDFPLVKFITCVNSIGNGLVIDPANETVVIKPKQGFGGLGGKYVLPTALANVNAFFRRCPDKLVFGCGGVYSGEEAFLHILAGASMVQVGTALHDEGPIIFARLNKELQEIMTNKGYKTLDEFRGRVKTMD | not failed |
| GPLQVSNARLLFPISMPEDEGVVRLVVNNTDESDLQVAVVSLPSFVSLDDRAFRLQAREPRELNLSLAVPRNMPPGMKDEPLVLEVTSPETGKKAVDSVMVSLPLVDNFPALTAAQTGVMELSTYLDMGQLDGETTKAAIEIRNVGAGPLRLHSVTTRNPALTAVPDRTEIKPGGSTLLRIAVDPQVMKAEGWQSIAADISIICNDPQAPLRRIKVKAEL | not failed |
| GPYATEVELREMVDIAQEHGIVEIEERRMIQSVFDLASTTVRQVMVPRPEMIWIESGKTAGQATALCVRSGHSRIPVIGENVDDIIGIVYLKDLVQKTYYATDGGKSVLVDEVMREATFVPDSKSLDALLQEMQEDHKHIAILVDEYGGVAGLISIEDILEEIVGEIADEYDAREVAPIEKIGDRTYRVVSRL | not failed |
